Changes are numbered by the printed parent chain. Names and notes keep the numbering of the source.
B1: huCBE11 #4 (VL#3 with VH#4) (antibody, human IgG1, V domains shown)
VH: EVQLVESGGGLVKPGGSLRLSCAASGFTFSDYYMYWFRQAPGKGLEWVATISDGGSYTYYPDSVKGRFTISRDNAKNSLYLQMSSLRAEDTAVYYCAREENGNFYYFDYWGQGTTVTVSS
VL: DIQMTQSPSSLSASVGDRVTITCKAGQDIKSYLSWYQQKPGKAPKLLIYYATRLADGVPSRFSGSGSGTDYTLTISSLQPEDFATYYCLQHGESPWTFGGGTKLEIKR
notes: Full mature chains with human IgG1 and kappa constant domains; also called hCBE11; pAND076/pAND090
B2: L2/V93A H2 (VL#2 with the V93A variant of VH#2) (antibody, V domains shown)
VH: B1 VH
VL: DIQMTQSPSSLSASVGDRVTITCKAGQDIKSYLSWYQQKPWKAPKILIYYATRLADGVPSRFSGSGSGTDYTLTISSLQPEDFATYYCLQHGESPWTFGGGTKLEIK
notes: Human IgG1 / kappa constant regions; also called pAND072/pAND090
B3: chimeric CBE11 (chCBE11) (antibody, V domains shown)
VH: B1 VH with R19K, A40T, G42E, G44R, S78N, R87K, A88S, V93M, A97V
VL: DIKMTQSPSSMYASLGERVTITCKAGQDIKSYLSWYQQKPWKSPKILIYYATRLADGVPSRFSGSGSGQDYSLTISSLESDDTATYYCLQHGESPWTFGGGTKLEIK
notes: the latter is followed; also called pEAG982/pEAG983
B4: L2/H3 (VL#2 with VH#3) (antibody, human IgG1, V domains shown)
VH: B1 VH with F37V
VL: B2 VL
notes: Mix and match co-transfection; Human IgG1 / kappa constant regions; also called pAND072/pAND077
B5: huCBE11 #2 (VL#2 with VH#2) (antibody, human IgG1, V domains shown)
VH: B1 VH with A97V
VL: B2 VL
notes: also called huCBE#2; pAND072/pAND073
B6: huCBE11 #3 (VL#3 with VH#3) (antibody, human IgG1, V domains shown)
VH: B1 VH with F37V
VL: B2 VL with W41G, I46L
notes: also called pAND076/pAND077
B7: huCBE11 #1 (VL#1 with VH#1) (antibody, human IgG1, V domains shown)
VH: B1 VH with A40T, V93M, A97V
VL: B2 VL with Q3K, T69Q
notes: also called pAND068/pAND069
B8: L3/H2 (VL#3 with VH#2) (antibody, human IgG1, V domains shown)
VH: B1 VH with A97V
VL: B2 VL with W41G, I46L
notes: Mix and match co-transfection; Human IgG1 / kappa constant regions; also called pAND076/pAND073

target: T1, lymphotoxin beta receptor (LT-β-R) (human, UniProt P36941 31-435); assay: FACS titration on HT-29 cells, 4°C, non-specific binding subtracted, four parameter fit (functional affinity)
T1 construct: whole, on cells; also called LT-β receptor
T1 sequence (P36941 31-435): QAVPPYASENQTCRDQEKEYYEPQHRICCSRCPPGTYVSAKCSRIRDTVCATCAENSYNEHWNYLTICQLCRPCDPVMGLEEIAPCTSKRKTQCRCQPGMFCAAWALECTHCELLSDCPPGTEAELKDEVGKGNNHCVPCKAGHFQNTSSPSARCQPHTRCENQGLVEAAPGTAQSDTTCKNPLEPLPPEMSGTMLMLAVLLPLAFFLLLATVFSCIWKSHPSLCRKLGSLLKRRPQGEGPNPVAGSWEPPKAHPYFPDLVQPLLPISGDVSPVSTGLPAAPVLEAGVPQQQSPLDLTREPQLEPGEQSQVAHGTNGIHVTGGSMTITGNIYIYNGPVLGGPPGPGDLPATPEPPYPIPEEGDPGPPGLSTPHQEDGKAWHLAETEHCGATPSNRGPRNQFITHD
Experimental: HuCBE11 #4 anti-LTβR antibody and humanized anti-CD40L as a negative control were diluted in PBS and a 12 point serial 1:4 dilution was made to a final concentration range of 2.37 pM-10 μM. 100 μL cell suspension and 100 μL antibody dilution were added together to each well of a 96 well V-bottom microtiter plate. The antibody and the cells were incubated at 4° C. for 2 hours. The plate was centrifuiged at 1000 rpm (110×g) for 10 minutes at 4° C. The supernatant was discarded and the cell pellet was washed with cold PBS six times.
Goat-anti human IgG-phycoerythrin conjugate (Jackson Immunoresearch) was diluted 1:100 in PBS and 200 μL was added to each well. The cells were incubated with this secondary antibody for one hour at 4° C., centrifuged as described above, and washed once in cold PBS. The cells were then transferred to polystyrene test tubes. Fluorescence intensity was measured on a FACS Calibur instrument (Beckton Dickinson).
These specific fluorescence intensity values were then plotted against huCBE11 #4 concentrations on a log scale. The resulting curve is bell shaped and symmetrical, and reflects self-inhibition of the antibody binding at high concentrations. The left half of this curve was fit to a four parameter equation to find the functional affinity of the antibody. The resulting curve fit gives an EC₅₀ value of 60 pM for the huCBE11 #4 binding to HT-29 cells.

Binder	EC50
B1	0.06 nM

target: T1, lymphotoxin beta receptor (LT-β-R); assay: FACS staining of HT-29 cells with conditioned medium, PE anti-human IgG
Experimental: Expression vectors were co-transfected into 293-EBNA cells and transfected cells were tested for antibody secretion and specificity (empty vector-transfected cells served as negative control). […] To examine the individual contributions of each of these changes, new heavy chain expression vectors were constructed. Plasmid pAND089, the F37V variant of VH#2, was made by subcloning the 311 bp NotI-PstI fragment from pAND075, the 126 bp PstI-HindIII fragment from pAND071, and the 1.21 kb HindIII-NotI fragment from the plasmid pEAG964 into the NotI site of the pCEP4 EBV expression vector-derived plasmid pCH269. Plasmid pAND090, the V93A variant of VH#2, was made by subcloning the 311 bp NotI-PstI fragment from pAND071, the 126 bp PstI-HindIII fragment from pAND075, and the 1.21 kb HindIII-NotI fragment from the plasmid pEAG964 into the NotI site of the pCEP4 EBV expression vector-derived plasmid pCH269. These H2/H3 chimeric heavy chains were co-transfected into 293-EBNA cells with VL#2 or VL#3. […] The pAND076 and pAND090 pairing was designated huCBE11 #4 (Table 1 supra).
Conditioned medium from transiently transfected cells was used to stain HT-29 cells by incubating for 30 min on ice, washing cells twice with FACS buffer (PBS with 5% FBS and 0.05% sodium azide), staining with PE-conjugated anti-human IgG (H+L), Jackson ImmunoResearch Laboratories, Inc., for 30 min on ice in FACS buffer, washing cells twice with FACS buffer, and resuspending in FACS buffer for analysis.

Binder	Relative MFI
B2	0.75 MFI normalized to chCBE11
B3	1 MFI normalized to chCBE11
B1	1 MFI normalized to chCBE11
B4	0.42 MFI normalized to chCBE11
B5	1 MFI normalized to chCBE11
B6	0.62 MFI normalized to chCBE11
B7	1 MFI normalized to chCBE11
B8	1 MFI normalized to chCBE11

Source: patent US20040058394A1 (Biogen, published 2004)
